Laboratory results published in the supplement of paper PMC7877785.
± gives the uncertainty stated by the source.

Assay: self-splicing fitness, log relative to wild type (ln ratio); higher = more splicing; Tetrahymena group I intron in knt gene, E. coli kanamycin selection, DiMSum; sequences stand for … in CUCUCU…GGAGGGAAAAGUUAUCAGGCAUGCACCUGGUAGCUAGUCUUUAAACCAAUAGAUUGCAUCGGUUUAAAAGGCAAGACCGUCAAAUUGCGGGAAAGGGGUCAACAGCCGUUCAGUACCAAGUCUCAGGGGAAACUUUGAGAUGGCCUUGCAAAGGGUAUGGUAAUAAGCUGACGGACAUGGUCCUAACCACGCAGCCAAGUCCUAAGUCAACAGAUCUUCUGUUGAUAUGGAUGCAGUUCACAGACUAAAUGUCGGUCGGGGAAGAUGUAUUCUUCUCAUAAGAUAUAGUCGGACCUCUCCUUAAUGGGAGCUAGCGGAUGAAGUGAUGCAACACUGGAGCCGCUGGGAACUAAUUUGUAUGCGAAAGUAUAUUGAUUAGUUUUGGAGUACUCGUGGUCG
Outline: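 The eight P1ex-region nucleotides of an intron in the knt kanamycin-resistance gene on pET-22b(+) were all randomised and the library put into E. coli BL21(DE3). Six replicate transformations were grown overnight at 37°C or 30°C on LB agar with or without 25 μg/mL kanamycin, together with 100 μg/mL carbenicillin, 50 μM IPTG and 0.2% rhamnose. Colonies were pooled and amplicon-sequenced on an Illumina HiSeq 2500. Fitness from DiMSum is the error-weighted combination of wild-type-normalised replicate fold changes, kanamycin over none.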

Row | Sequence | self-splicing fitness (ln) (30 °C) | self-splicing fitness (ln) (37 °C)
1 | ACGAAGCAAUAUUACGACCC | -0.88 ± 0.22 | 0.121 ± 0.26
2 | GUCCAGCAAUAUUACGUGGC | -3.97 ± 0.24 | -3.46 ± 0.39
3 | GCGCAGCAAUAUUACGCAUC | -0.685 ± 0.092 | -0.339 ± 0.098
4 | UAUCAGCAAUAUUACGAGGU | -2.73 ± 0.28 | -3.78 ± 0.37
5 | GUAUAGCAAUAUUACGAGUG | -2.23 ± 0.15 | -2.47 ± 0.22
6 | ACUGAGCAAUAUUACGAGCU |  | -1.02 ± 0.32
7 | UUUUAGCAAUAUUACGCGCU | -2.57 ± 0.25 | -0.994 ± 0.21
8 | ACAAAGCAAUAUUACGCAGC | -2.63 ± 0.17 | -0.879 ± 0.16
9 | GAUUAGCAAUAUUACGCUUU | -2.1 ± 0.46 | -1.9 ± 0.33
10 | ACGUAGCAAUAUUACGCCCU | -0.282 ± 0.11 | -0.245 ± 0.095
11 | CGAUAGCAAUAUUACGCCUC | -2.84 ± 0.24 | -1.74 ± 0.26
12 | AUUUAGCAAUAUUACGGCUA | -0.795 ± 0.13 | 0.255 ± 0.12
13 | UCAGAGCAAUAUUACGCAGA | -2.96 ± 0.27 | -1.47 ± 0.21
14 | UUCAAGCAAUAUUACGUCUU |  | -3.54 ± 0.33
15 | GCGCAGCAAUAUUACGUUAA | -1.45 ± 0.089 | -0.728 ± 0.088
16 | AGAAAGCAAUAUUACGGAUG | -2.93 ± 0.14 | -2.04 ± 0.14
17 | UUGAAGCAAUAUUACGUCCA | 0.231 ± 0.094 | 0.472 ± 0.12
18 | UCCCAGCAAUAUUACGUCUG | -3.05 ± 0.17 | -2.85 ± 0.31
19 | CGAUAGCAAUAUUACGGGGU | -3.87 ± 0.19 | -3.11 ± 0.32
20 | CGUUAGCAAUAUUACGCUAU | -2.29 ± 0.28 | 
21 | CAUUAGCAAUAUUACGCUGC | -3.92 ± 0.28 | -2.43 ± 0.24
22 | UUUUAGCAAUAUUACGACUG | -0.652 ± 0.097 | -0.152 ± 0.13
23 | GAGGAGCAAUAUUACGGGUU | -1.74 ± 0.14 | -2.23 ± 0.22
24 | GCCUAGCAAUAUUACGUCCA | -2.37 ± 0.18 | -1.38 ± 0.18
25 | UAAGAGCAAUAUUACGUUCA | -1.29 ± 0.13 | -0.735 ± 0.14
26 | GGGCAGCAAUAUUACGAAGC | -1.64 ± 0.077 | -0.939 ± 0.09
27 | UACCAGCAAUAUUACGUAAA | -0.982 ± 0.071 | -0.408 ± 0.097

Row | Sequence | self-splicing fitness (ln) (30 °C) | self-splicing fitness (ln) (37 °C)
28 | CCAAAGCAAUAUUACGCGUU | -3.79 ± 0.12 | -2.89 ± 0.16
29 | CACGAGCAAUAUUACGAUCU |  | -1.99 ± 0.27
30 | UUAUAGCAAUAUUACGUGAG | -1.2 ± 0.087 | -0.672 ± 0.12
31 | CCUCAGCAAUAUUACGAUAG | -0.572 ± 0.067 | -1.24 ± 0.1
32 | CUGCAGCAAUAUUACGGCUC | -2.57 ± 0.22 | -2.96 ± 0.43
33 | AAUUAGCAAUAUUACGCGCA | -0.118 ± 0.11 | 0.114 ± 0.15
34 | GACGAGCAAUAUUACGGAUC | -2.68 ± 0.39 | -1.75 ± 0.44
35 | CACUAGCAAUAUUACGUUGU | -4.22 ± 0.14 | -2.08 ± 0.12
36 | GUAGAGCAAUAUUACGUAGA | -4.79 ± 0.41 | -1.55 ± 0.25
37 | UCGUAGCAAUAUUACGGGAC |  | -2.5 ± 0.44
38 | AUCUAGCAAUAUUACGCUUC | -3.91 ± 0.36 | -2.03 ± 0.23
39 | UCGCAGCAAUAUUACGAACC | -3.4 ± 0.4 | -2.44 ± 0.41
40 | ACUAAGCAAUAUUACGUAGG | -1.4 ± 0.074 | -0.98 ± 0.1
41 | GUAGAGCAAUAUUACGCUAG | -0.754 ± 0.13 | 0.329 ± 0.21
42 | CGGCAGCAAUAUUACGUACU | -0.872 ± 0.052 | -0.714 ± 0.06
43 | UAUUAGCAAUAUUACGUGAC | -2.92 ± 0.42 | -1.82 ± 0.27
44 | UACGAGCAAUAUUACGCCAU |  | -1.84 ± 0.31
45 | GUUGAGCAAUAUUACGCCUU | -2.32 ± 0.28 | -1.78 ± 0.36
46 | CAGGAGCAAUAUUACGAGAU | -3.82 ± 0.29 | -3.8 ± 0.39
47 | AACUAGCAAUAUUACGUCAG | -3.51 ± 0.18 | -1.57 ± 0.15
48 | GGUGAGCAAUAUUACGUUCA |  | -1.92 ± 0.47
49 | GUGCAGCAAUAUUACGGGGA | -4.16 ± 0.3 | -2.8 ± 0.23
50 | AACUAGCAAUAUUACGCUUA | -0.632 ± 0.087 | -0.749 ± 0.11
51 | GAGAAGCAAUAUUACGGGGU | -3.06 ± 0.2 | -3.13 ± 0.28
52 | AGGUAGCAAUAUUACGCAUA | -1.71 ± 0.019 | -0.787 ± 0.034
53 | CGACAGCAAUAUUACGGCUA | -2.5 ± 0.2 | -1.39 ± 0.14
54 | CAUCAGCAAUAUUACGGGCA | -2.51 ± 0.12 | -1.83 ± 0.14

Row | Sequence | self-splicing fitness (ln) (30 °C) | self-splicing fitness (ln) (37 °C)
55 | CAUAAGCAAUAUUACGCCAA | -2.33 ± 0.17 | -2.69 ± 0.32
56 | AAUGAGCAAUAUUACGCUGC |  | -1.24 ± 0.24
57 | CACAAGCAAUAUUACGCAAG | -1.54 ± 0.087 | -0.814 ± 0.1
58 | ACAGAGCAAUAUUACGGAAA | -3.38 ± 0.36 | -2.81 ± 0.38
59 | AGUAAGCAAUAUUACGACUC | -1.88 ± 0.13 | -0.797 ± 0.14
60 | GCUGAGCAAUAUUACGUACU | -1.76 ± 0.23 | -1.07 ± 0.27
61 | GUUCAGCAAUAUUACGUCGA | -0.842 ± 0.15 | -0.398 ± 0.13
62 | CUGCAGCAAUAUUACGGCAG | -2.63 ± 0.22 | -2.27 ± 0.2
63 | CAAAAGCAAUAUUACGGGUA | -2.22 ± 0.13 | -2.12 ± 0.15
64 | GCUGAGCAAUAUUACGCUAU | -3.25 ± 0.19 | -3.59 ± 0.28
65 | CUAUAGCAAUAUUACGGCCA |  | -3.35 ± 0.43
66 | GAGAAGCAAUAUUACGAUCA | -1.06 ± 0.15 | -0.469 ± 0.16
67 | UAGUAGCAAUAUUACGGGUG | -0.96 ± 0.071 | -0.773 ± 0.079
68 | AAAAAGCAAUAUUACGAGGC | -4.09 ± 0.33 | -2.57 ± 0.32
69 | GAGGAGCAAUAUUACGCACA | -1.61 ± 0.32 | -0.287 ± 0.23
70 | CAUGAGCAAUAUUACGGUGA | -1.91 ± 0.35 | -2.8 ± 0.44
71 | CCAUAGCAAUAUUACGUCAA | -4.82 ± 0.41 | -0.857 ± 0.17
72 | UCUCAGCAAUAUUACGUCAG | -3.54 ± 0.25 | -3.16 ± 0.27
73 | ACACAGCAAUAUUACGAGUC | -5.36 ± 0.27 | -3.05 ± 0.19
74 | AGGAAGCAAUAUUACGGUUC | -2.78 ± 0.21 | -2.24 ± 0.2
75 | UCGAAGCAAUAUUACGAAGA | -2.08 ± 0.25 | -0.685 ± 0.19
76 | AACGAGCAAUAUUACGGACA | -2.38 ± 0.12 | -1.57 ± 0.11
77 | AUUAAGCAAUAUUACGUUUG | -3.11 ± 0.15 | -1.56 ± 0.16
78 | AUAGAGCAAUAUUACGGCAC | -1.75 ± 0.14 | -0.686 ± 0.2
79 | UGUUAGCAAUAUUACGCCUU | -0.953 ± 0.37 | -1.4 ± 0.33
